In patent US20240116985A1, “STAPLED PEPTIDES AND METHODS THEREOF” (priority 2020, published 2024):
Starred links: 1 amine or outer side, 2 acyl side, 3 side chain; linkers in the order of their positions; H or OH if unused. Positions of bridges follow the written chain, without caps; N, C: chain ends. Non-standard residues stand in square brackets, D forms with d. Primed or numbered codes have the meaning given here. PyrS2″ = (S)-3-amino-1-((pent-4-en-1-yloxy)carbonyl)pyrrolidine-3-carboxylic acid (stapling residue), C=CCCCOC(=O)N1CC[C@@](N[*:1])(C(=O)[*:2])C1; B5(4) = 2,2-bis(4-pentenyl)glycine = 2-amino-2-(pent-4-en-1-yl)hept-6-enoic acid (stitching residue), C=CCCCC(CCCC=C)(N[*:1])C(=O)[*:2]; B5(5) = 2,2-bis(4-pentenyl)glycine, 2-amino-2-(pent-4-en-1-yl)hept-6-enoic acid (stitching residue), C=CCCCC(CCCC=C)(N[*:1])C(=O)[*:2]; TfeGA = (S)-2-amino-3-((carboxymethyl)(2,2,2-trifluoroethyl)amino)propanoic acid, O=C([C@H](CN(CC(=O)[*:3])CC(F)(F)F)N[*:1])[*:2]; Bta = N[C@@H](Cc1csc2ccccc12)C(=O)O; Lys(iPr) = CC(C)NCCCC[C@H](N)C(=O)O; αAllylPro = C=CC[C@@]1(C(=O)O)CCCN1; tBuAla = CC(C)(C)C[C@H](N)C(=O)O; 3Thi = N[C@@H](Cc1ccsc1)C(=O)O

Molecular target: full-length beta-Catenin (Uniprot ID P35222) (Homo sapiens (Human)) (UniProt P35222)
Sequence (P35222 whole entry): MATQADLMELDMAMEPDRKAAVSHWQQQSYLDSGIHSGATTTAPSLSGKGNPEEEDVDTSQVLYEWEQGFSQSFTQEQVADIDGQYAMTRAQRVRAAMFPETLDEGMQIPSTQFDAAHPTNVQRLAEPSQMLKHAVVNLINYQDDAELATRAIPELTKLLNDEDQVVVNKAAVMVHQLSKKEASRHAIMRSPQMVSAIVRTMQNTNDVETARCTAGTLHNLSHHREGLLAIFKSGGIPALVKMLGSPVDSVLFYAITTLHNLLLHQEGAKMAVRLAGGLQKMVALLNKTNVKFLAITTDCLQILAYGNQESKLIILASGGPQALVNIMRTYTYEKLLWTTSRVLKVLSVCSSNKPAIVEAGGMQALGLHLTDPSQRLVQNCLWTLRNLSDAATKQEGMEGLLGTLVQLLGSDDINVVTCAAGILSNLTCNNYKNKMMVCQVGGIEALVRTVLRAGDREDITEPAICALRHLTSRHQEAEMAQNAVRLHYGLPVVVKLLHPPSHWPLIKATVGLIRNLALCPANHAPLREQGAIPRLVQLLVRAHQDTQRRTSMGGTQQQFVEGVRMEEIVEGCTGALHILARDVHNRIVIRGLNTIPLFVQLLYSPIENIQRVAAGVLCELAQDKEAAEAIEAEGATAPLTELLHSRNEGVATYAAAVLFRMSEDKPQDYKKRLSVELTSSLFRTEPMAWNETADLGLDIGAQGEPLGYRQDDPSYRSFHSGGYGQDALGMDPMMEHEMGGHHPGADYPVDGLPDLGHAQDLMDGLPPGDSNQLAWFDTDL
Assay: fluorescence polarization competition; full-length beta-catenin, competitor 5FAM-TCF4(10-53)

First: Ac-[αAllylPro]D[tBuAla][B5(5)]D[TfeGA][Lys(iPr)]AFL[PyrS2″][3Thi][Bta]L-NH2 (staple 1-4, 4-11) [I-1759]
Second: Ac-[αAllylPro]D[tBuAla][B5(4)]D[TfeGA]AAFL[PyrS2″][3Thi][Bta]V-NH2 (staple 1-4, 4-11; not fully specified) [I-1751]
The IC50 of the first is 1.8-fold lower: 57 nM for the first, 104 nM for the second. The first is the more potent here.

Going from Ac-[αAllylPro]D[tBuAla][B5(4)]D[TfeGA]AAFT[PyrS2″][3Thi][Bta]F-NH2 (staple 1-4, 4-11; also: -CH=CH- in each staple reduced to -CH2-CH2-) [I-1756] to Ac-[αAllylPro]D[tBuAla][B5(5)]D[TfeGA]AAFL[PyrS2″][3Thi][Bta]F-NH2 (staple 1-4, 4-11) [I-1750], the IC50 falls from 329 nM to 104 nM (3.2-fold).

First: Ac-[αAllylPro]D[tBuAla][B5(4)]D[TfeGA]AAFL[PyrS2″][3Thi][Bta]F-NH2 (staple 1-4, 4-11; not fully specified) [I-1749]
Second: Ac-[αAllylPro]D[tBuAla][B5(4)]D[TfeGA]AAFL[PyrS2″][3Thi][Bta]L-NH2 (staple 1-4, 4-11; also: -CH=CH- in each staple reduced to -CH2-CH2-) [I-1753]
The IC50 of the first is 5.5-fold lower: 145 nM for the first, 802 nM for the second. The first is the more potent here.

First: Ac-[αAllylPro]D[tBuAla][B5(5)]D[TfeGA][Lys(iPr)]AFT[PyrS2″][3Thi][Bta]L-NH2 (staple 1-4, 4-11) [I-1760]
Second: Ac-[αAllylPro]D[tBuAla][B5(4)]D[TfeGA]AAFT[PyrS2″][3Thi][Bta]L-NH2 (staple 1-4, 4-11; also: -CH=CH- in each staple reduced to -CH2-CH2-) [I-1754]
The IC50 of the first is 21-fold lower: 32 nM for the first, 660 nM for the second. The first is the more potent here.

First: Ac-[αAllylPro]D[tBuAla][B5(4)]D[TfeGA]AAFT[PyrS2″][3Thi][Bta]V-NH2 (staple 1-4, 4-11; also: -CH=CH- in each staple reduced to -CH2-CH2-) [I-1758]
Second: Ac-[αAllylPro]D[tBuAla][B5(4)]D[TfeGA]AAFL[PyrS2″][3Thi][Bta]F-NH2 (staple 1-4, 4-11; also: -CH=CH- in each staple reduced to -CH2-CH2-) [I-1755]
The IC50 of the first is 2.4-fold lower: 235 nM for the first, 570 nM for the second. The first is the more potent here.

Compared with Ac-[αAllylPro]D[tBuAla][B5(5)]D[TfeGA][Lys(iPr)]AFL[PyrS2″][3Thi][Bta]F-NH2 (staple 1-4, 4-11) [I-1761], Ac-[αAllylPro]D[tBuAla][B5(4)]D[TfeGA]AAFL[PyrS2″][3Thi][Bta]V-NH2 (staple 1-4, 4-11; also: -CH=CH- in each staple reduced to -CH2-CH2-) [I-1757] is 12-fold higher in IC50: 39 nM for the first, 449 nM for the second.

First: Ac-[αAllylPro]D[tBuAla][B5(5)]D[TfeGA]AAFL[PyrS2″][3Thi][Bta]L-NH2 (staple 1-4, 4-11) [I-1748]
Second: Ac-[αAllylPro]D[tBuAla][B5(4)]D[TfeGA]AAFL[PyrS2″][3Thi][Bta]V-NH2 (staple 1-4, 4-11; not fully specified) [I-1752]
The IC50 of the first is 1.6-fold higher: 141 nM for the first, 87 nM for the second.
